We go through 22 molecules from patent US20220143204A1 (LINXIS B V, published 2022).

For assay [1], the target named is T1, human PDGFRB extracellular domain (human, UniProt P09619 33-532).
T1 construct: extracellular domain; also called hPDGFRB-ECD; human PDGFRB ectodomain
The assay is described as follows: binding assay on immobilised human PDGFRB ectodomain, apparent affinity (Example 4).

Assay [2] addresses T2, human PDGFRB on SCC VII cells (human, UniProt P09619 33-1106).
T2 construct: whole, on cells; also called hPDGFRB; SCC-hPDGFRB
Nature of the assay: binding assay on SCC VII cells transfected with human PDGFRB (Example 4).

Assay [3] has as its target T3, human PDGFRB on LX-2 cells (human, UniProt P09619).
T3 construct: full-length receptor on the cell surface; The list has human PDGFRB only on SCC VII cells
Nature of the assay: binding assay on the human hepatic stellate cell line LX-2 (Example 4).

For assay [4], the target named is T4, rat PDGFRB on SCC VII cells (rat, UniProt Q05030 32-1097).
T4 construct: whole, on cells; also called rPDGFRB; SCC-rPDGFRB
Nature of the assay: binding assay on SCC VII cells transfected with rat PDGFRB (Example 4).

In assay [5] the target is T5, rat PDGFRB extracellular domain (rat, UniProt Q05030 32-531).
T5 construct: extracellular domain; also called rPDGFRB-ECD; rat PDGFRB ectodomain
T5 sequence (looked up): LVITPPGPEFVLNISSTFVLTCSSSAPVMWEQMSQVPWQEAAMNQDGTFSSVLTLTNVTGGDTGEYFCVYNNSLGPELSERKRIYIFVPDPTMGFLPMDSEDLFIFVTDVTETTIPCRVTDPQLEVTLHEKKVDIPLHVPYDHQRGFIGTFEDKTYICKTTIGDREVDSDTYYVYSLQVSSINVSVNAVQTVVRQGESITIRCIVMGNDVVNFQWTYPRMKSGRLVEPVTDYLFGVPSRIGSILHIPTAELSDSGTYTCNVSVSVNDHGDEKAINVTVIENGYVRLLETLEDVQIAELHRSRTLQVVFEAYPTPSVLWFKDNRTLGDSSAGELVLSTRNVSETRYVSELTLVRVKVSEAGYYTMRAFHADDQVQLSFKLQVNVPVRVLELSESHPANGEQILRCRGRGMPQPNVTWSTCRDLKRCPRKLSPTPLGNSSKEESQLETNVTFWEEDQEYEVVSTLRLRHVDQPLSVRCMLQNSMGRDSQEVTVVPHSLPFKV
The assay is described as follows: binding assay on immobilised rat PDGFRB ectodomain, apparent affinity (Example 4).

T2 sequence (P09619 33-1106): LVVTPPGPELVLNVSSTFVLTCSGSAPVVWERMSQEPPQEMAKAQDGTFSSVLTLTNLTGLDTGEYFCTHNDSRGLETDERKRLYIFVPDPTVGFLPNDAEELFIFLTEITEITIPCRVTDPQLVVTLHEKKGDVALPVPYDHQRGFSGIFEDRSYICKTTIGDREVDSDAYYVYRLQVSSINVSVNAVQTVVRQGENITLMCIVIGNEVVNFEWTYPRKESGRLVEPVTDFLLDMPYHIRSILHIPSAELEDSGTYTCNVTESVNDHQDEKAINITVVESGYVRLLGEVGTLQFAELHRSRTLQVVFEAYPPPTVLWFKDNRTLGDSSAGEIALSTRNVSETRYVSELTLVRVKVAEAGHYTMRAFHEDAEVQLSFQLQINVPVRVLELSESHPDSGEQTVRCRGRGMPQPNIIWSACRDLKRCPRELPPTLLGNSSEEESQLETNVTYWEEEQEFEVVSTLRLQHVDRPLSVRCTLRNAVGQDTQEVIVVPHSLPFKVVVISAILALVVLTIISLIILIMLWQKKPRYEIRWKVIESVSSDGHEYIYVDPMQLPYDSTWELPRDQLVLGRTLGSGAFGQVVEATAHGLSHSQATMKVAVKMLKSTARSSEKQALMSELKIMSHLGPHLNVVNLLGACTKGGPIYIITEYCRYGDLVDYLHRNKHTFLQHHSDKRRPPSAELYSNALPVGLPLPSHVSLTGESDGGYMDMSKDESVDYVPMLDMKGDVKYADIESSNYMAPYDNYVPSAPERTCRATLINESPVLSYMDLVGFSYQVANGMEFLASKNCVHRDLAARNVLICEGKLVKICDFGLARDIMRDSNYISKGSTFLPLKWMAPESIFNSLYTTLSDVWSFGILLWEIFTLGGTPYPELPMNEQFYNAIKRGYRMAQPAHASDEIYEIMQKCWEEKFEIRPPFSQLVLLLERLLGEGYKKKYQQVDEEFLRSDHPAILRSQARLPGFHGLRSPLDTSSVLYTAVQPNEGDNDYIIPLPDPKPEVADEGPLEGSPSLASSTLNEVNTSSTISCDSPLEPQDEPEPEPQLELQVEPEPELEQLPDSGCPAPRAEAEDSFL
T3 sequence (P09619 33-1106 limits assumed): as the sequence (P09619 33-1106) above
T1 sequence (P09619 33-532): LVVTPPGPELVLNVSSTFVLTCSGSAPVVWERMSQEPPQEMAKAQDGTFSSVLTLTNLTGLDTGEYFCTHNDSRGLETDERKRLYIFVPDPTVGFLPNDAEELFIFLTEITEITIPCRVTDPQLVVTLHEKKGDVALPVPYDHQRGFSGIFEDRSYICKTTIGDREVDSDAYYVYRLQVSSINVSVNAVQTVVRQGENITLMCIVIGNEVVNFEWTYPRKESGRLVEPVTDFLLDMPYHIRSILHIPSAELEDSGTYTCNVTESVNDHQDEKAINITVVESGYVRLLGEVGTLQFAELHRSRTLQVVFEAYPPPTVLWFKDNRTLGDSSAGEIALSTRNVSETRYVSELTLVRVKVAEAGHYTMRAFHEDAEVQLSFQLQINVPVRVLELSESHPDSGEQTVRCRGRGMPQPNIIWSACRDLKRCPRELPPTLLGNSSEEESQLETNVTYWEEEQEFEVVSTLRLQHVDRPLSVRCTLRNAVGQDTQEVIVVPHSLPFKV

B1: SP23P (VHH)
VHH: EVQLVESGGELVQAGGSLRLSCAVSGRTLTSYPMGWFRQAPGKEREFVAAISWSGGDTMYADSVKGRFTISRDNSKNTVYLQMNSLKPEDTADYYCARRRYSSGISRHLVDYEYWGQGTQVTVSS
notes: Llama VHH; on phage in the phage ELISA
For the molecule B1, the binding result in assay [1] was “binds”.

B2: SP15P (VHH)
VHH: EVQLVESGGGLVQAGGSLRLSCAASGRAFGGPYMAWFRQTPGKGREFVAAISPSSVYTFYQDSVKGRFTISRDNTKNTAYLQMNSLKPEDTAVYYCAAEAAGEVRLETSYKYWGQGTQVTVSS
notes: as for B1
On to B2, for which the binding result in assay [1] is on record as “binds”.

B3: SP01P (VHH)
VHH: EVQLVESGGGLAQAGGSLRLSCVASGNIDSANGMAWYRQAPGKQRELVAHITSGTSYYVASVEGRFTISRANAKDTWYLQMNSLKPEDTGVYYCFPIGLSAHWSQGTQVTVSS
notes: as for B1
Turning to B3, the Kd in assay [2] worked out at 7.8 nM; in assay [1] it was 20.4 nM.

B4: SP11P (VHH)
VHH: EVQLVESGGGLVQAGDSLRLSCAASGRTFSSYPIAWFRQAPGKEREFVAAITSSGLTTYYANVVKGRFAISRDNAKDTVYLQMNSLKPEDTAVHYCATSNGFLSGRDIYQHNKYIYWGQGTQVTVSS
notes: as for B1
As to B4, in assay [1], the binding result was “binds”.

B5: SP13P (VHH)
VHH: EVQLVESGGGLVQPGGSLRLSCAASESIFSINYMAWYRQAPGKQRELVAFSIDGSSTNYVDSVRGRFTASRDNAENTLYLQMNSLKPEDTAVYYCYAQGNTWAAGVWGQGTQVTVSS
notes: as for B1
On to B5, for which the results for the Kd in assay [2] and in assay [1] were 10.4 nM and 9.3 nM, respectively.

B6: SP12P (VHH)
VHH: EVQLVESGGGLVQAGGSLRLSCVISGRTSPTYPMGWFRQSPGNEREFVASINWSGGWRNYADSVKGRFTISRDDAKNTVYLQMNSLKPEDTAVYYCARGQYSSGTPVYAHEYAYWGQGTQVTVSS
notes: as for B1
On to B6, for which the Kd is 0.6 nM in assay [3] and 0.3 nM in assay [2].

B7: SP20P (VHH)
VHH: EVQLVESGGGLVQAGGSLRLSCVISGRTSPTYPMGWFRQSPGNEREFVASINWSGGWRNYADSVKDRFTISRDDAKNTVYLQMNSLKPEDTAVYYCARGQYSSGTPVYAHEYAYWGQGTQVTVSS
notes: as for B1
As to B7, the Kd in assay [3] is 53.6 nM; in assay [2], 1 nM; in assay [1], 3.8 nM.

B8: SP08P (VHH)
VHH: EVQLVESGGGLVQAGGSLRLSCAASGRTFNGYAMAWFRQAPGKERDFVASITWSYGYTYYADSAQGRFTISRDSAKNTVYLEMNSLKPEDTAVYYCAADPKASRFRILRQYAHWGQGTQVTVSS
notes: as for B1
With B8, the Kd in assay [3] turned out to be 60.2 nM; in assay [2] it was 0.5 nM.

B9: SP05P (VHH)
VHH: EVQLVESGGGLVQAGGSLRLSCAASGRTSFSGYAMAWFRQAPGKERDFVASITWSYGYTYYTDSAQGRFTISRDSAKNTVYLEMNSLKPEDTAVYYCAADPKASRFRILREYAYWGQGTQVTVSS
notes: as for B1
Turning to B9, the Kd in assay [3] was 193 nM; in assay [2] it was 1.4 nM; in assay [1], 9.2 nM.

B10: SP36P (VHH)
VHH: EVQLVESGGGLVQAGGSLRLSCTPSITTAGTTIMAWFRQAPGNEREFVAAIWGSKTAYGDSMKGRLTISRDNVRDNGQKTVFLQMNNLQLQDTATYYCAASSGGYVHSSTSYEIWGRGTQVTVSS
notes: as for B1
On to B10, for which the Kd turned out to be 76.6 nM in assay [4] and 31 nM in assay [5].

B11: SP31P (VHH)
VHH: EVQLVESGGGLVQAGGSLRLSCAASRGTFGTYIMGWFRQAPGKEREFVAAISWRGANTYYGYSVKGRFTISRDNAKNTMYLQMADLKPEDTADYYCGVHLNGTPYYYASGYRYWGQGTQVTVSS
notes: as for B1
B11: the Kd in assay [4] is 31.8 nM; in assay [5], 276 nM.

B12: SP30P (VHH)
VHH: EVQLVESGGGLVQAGGSLRLSCAASRGTFGTDIMGWFRQAPGKEREFVAAISWRGANTYYGYSVKGRFTISRDNAKNTMYLQMADLKPEDTADYYCGVHLNGTPYYYASGYRYWGQGTQVTVSS
notes: as for B1
Take B12: in assay [5], the Kd stood at 12.2 nM.

B13: SP35P (VHH)
VHH: EVQLVESGGGLVQPGGSLRLSCAASGSLGSNNPMAWYRQAPGKERELVASISSAYRTHYADFVKGRFTISRDSPKNTVSLQMNNLKPEDTAVYYCGIFVSARNYWGKGTQVTVSS
notes: as for B1
In the case of B13, the binding result in assay [5] is “binds”.

B14: SP32P (VHH)
VHH: EVQLVESGGGTVQAGDSLRLSCTASGRTFSTYTMGWFRQAPGKERVVVAVNTWNNFTVHQPSVKGRFTMSRDNTKNSIYLQMDSLKPEDTAVYYCAASAKGTARYDYWGQGTQVTVSS
notes: as for B1
Take B14: the binding result in assay [5] was “binds”.

B15: SP21P (VHH)
VHH: EVQLVESGGGLVQPGGSLRLSCVVSGSSFSSYTMGWFRRAPGKQRELVAGVSTVGDTAAADSVKGRFTISRDNAKNTVYLQMNSLKPEDTAVYYCNTYPHAYLEWGQGTQVTVSS
notes: as for B1
For the molecule B15, the binding result in assay [1] is recorded as “binds”.

B16: SP27P (VHH)
VHH: EVQLVESGGGLVQIGDSLRLSCAASGGTFNRYGMGWFRQAPGKEREFVAAIRWDGVDTNYADFVKGRFTISRYNAKNTAYLQMNSLKPEDTAVYYCAADRRGLYTKHAHRYDYWGQGTQVTVSS
notes: as for B1
B16: the Kd in assay [5] was found to be 25.5 nM.

B17: SP10P (VHH)
VHH: EVQLVESGGGLVQAGGSLRLSCAASGRTFNGYAMGWFRQAPGKERDFVAAITWSYGYTHYAESVKGRFSISRDSANNMVYLEMNSLKPEDTAVYYCAADPKASRFRTLRRYDYWGQGTQVTVSS
notes: as for B1
In assay [2], B17 displayed a Kd of 0.9 nM.

B18: SP25P (VHH)
VHH: EVQLVESGGGLVQPGGSLRLSCAASESIFSINAMGWYRQTPGKQREMVASITPGGFTIYADSVKGRFTISRDNAKNTLYLQMNNLRFEDTAVYYCNAFAGSATSYHDFGSWGQGTQVTVSS
notes: as for B1
For the molecule B18, the binding result in assay [5] is “binds”.

B19: SP07P (VHH)
VHH: EVQLVESGGGSVQTGGSLRLSCAASGRSFSTYAMAWFRQAPGKEREFVAAINRRATDTVYADSAKGRFIISRDNDKNTVYLQMDSLKTEDTAVYYCAAAKNAYDWRWDRLRDRDYWGQRGQGTQVTVSS
notes: as for B1
On to B19, for which the Kd is 62.3 nM in assay [2] and 10.1 nM in assay [1].

B20: SP14P (VHH)
VHH: EVQLVESGGGLVQAGDSLRLSCVVSGLTFSRYGMGWFRQATGKEREFVGGISVGSSGTMYPNSVKGRFTISRDNAKSTVYLQMNSLKPEDTAVYFCAAIDQGSFVQQRDYRYWGQGTQVTVSS
notes: as for B1
Consider B20, for which the Kd was 3.1 nM in assay [3], 0.6 nM in assay [2] and 8.6 nM in assay [1].

B21: SP29P (VHH)
VHH: EVQLVESGGGLVQAGDSLRLSCTVSGRTFNTYVTGWFRQAPGKEREFVAAIHQIGSTYYRNSVKGRFTISRDGAKDTVYLQMNNLKPEDSAVYYCAAGNGGYVMSDIAYGTWGQGTQVTVSS
notes: as for B1
Consider B21, for which, in assay [5], the binding result is given as “binds”.

B22: SP17P (VHH)
VHH: EVQLVESGGGLVQPGGSLRLSCAASGLTFVNYAMGWFRQAPGKERELVAGIASSGRIYYADSVAGRFTISRDNARNTVNLQMNSMKPEDTAVYYCAGRRSFSSTSAADYNYWGQGTQVTVSS
notes: as for B1
On to B22, for which, in assay [1], the binding result is listed as “binds”.
